Where a chain is given by its changes, count along the chain named.
B1: M207-A04 (Fab, V domains shown)
VH: EVQLLESGGGLVQPGGSLRLSCAASGFTFSHYLMTWVRQAPGKGLEWVSYISPSGGHTIYADSVKGRFTISRDNSKNTLYLQMNSLRAEDTAVYYCARVARGIAARSRTSYFDYWGQGTLVTVSS
VL: DIQMTQSPGTLSLSPGERATLSCRTSQFVNSNYLAWYQQTPGQAPRLLIYGASSRATGIPDRFSGTGYGTDFTLTISRLEPEDYGTYYCQQSSRTPWTFGQGTRVEIK
B2: M209-B11 (Fab, V domains shown)
VH: B1 VH with F112I, Y114Q
VL: B1 VL
B3: M209-D12 (Fab, V domains shown)
VH: B1 VH with G42S, R98T, Y114Q
VL: B1 VL
B4: M209-H03 (Fab, V domains shown)
VH: B1 VH with G42S, R101Q, S110T, Y111Q
VL: B1 VL
B5: M209-H07 (Fab, V domains shown)
VH: B1 VH with S107Q, F112Y
VL: B1 VL with S53D, S54D
B6: M209-D02 (Fab, V domains shown)
VH: B1 VH with A104T, Y114D
VL: B1 VL with G42S
B7: M6-D09 (antibody, V domains shown)
VH: EVQLLESGGGLVQPGGSLRLSCAASGFTFSFYYMVWVRQAPGKGLEWVSVIYPSGGITVYADSVKGRFTISRDNSKNTLYLQMNSLRAEDTAVYYCARDKWAVMPPYYYYAMDVWGQGTTVTVSS
VL: DIQMTQSPSSLSASVSDRVTITCRASQSIRNYLNWYQQKPSKAPNLLIYAASTLQSGVPARFSGSGSGTDFTLTISSLQPEDFATYYCQQLSGYPHTFGQGTKLEIK
notes: HC as printed runs into CH1
B8: M29-D09 (antibody, V domains shown)
VH: EVQLLESGGGLVQPGGSLRLSCAASGFTFSWYTMVWVRQAPGKGLEWVSYIYPSGGATFYADSVKGRFTISRDNSKNTLYLQMNSLRAEDTAVYYCAMGSYDYIWGFYSDHWGQGTLVTVSS
VL: QSALTQPPTVSVSPGQTARITCSGNKLGDKYVAWYQQKPGQSPMLVIYQDTKRPSAIPERFSGSNSANTATLSISGTQALDEADYYCQAWDSSIVIFGGGTRLTVL
notes: HC as printed runs into CH1
B9: M6-D09 (antibody, V domains shown)
VH: B7 VH
VL: B7 VL
B10: M7-B04 (antibody, V domains shown)
VL: QSALTQPASVSGSPGQSITISCTGTNSDVGNYNLVSWYQQHPGEAPKLLIYEVNKRPSGVSNRFSGSKSGNTASLTISGLQAEDEADYLCCSYAGNRNFYVFGAGTKVTVL
VH: EVQLLESGGGLVQPGGSLRLSCAASGFTFSWYSMVWVRQAPGKGLEWVSSISPSGGLTNYADSVKGRFTISRDNSKNTLYLQMNSLRAEDTAVYYCARHTAARPFYYYYMDVWSKSTTVTVSSASTKGPSVFPLAPSSKS
B11: M10-F10 (antibody, V domains shown)
VH: EVQLLESGGGLVQPGGSLRLSCAASGFTFSFYNMNWVRQAPGKSLEWVSSISPSGGETNYADSVKGRFTISRDNSKNTLYLQMNSLRAEDTAVYYCARGGGAYRNNWWGGFDIWGLGTMVTVSS
VL: DIQMTQSPSSLSASVGDRVTITCRASQSISVYLNWYQHKPGKAPKLLIYGASNLQFGVPSRFSGSGYGTDFTLTISSLQPEDFATYHCQQTFSLFTFGGGTKVEIK
B12: M12-B05 (antibody, V domains shown)
VH: B8 VH
VL: B8 VL with A56R, I57V, P58S
B13: M29-D09 (antibody, V domains shown)
VH: B8 VH
VL: B8 VL
B14: M29-E09 (antibody, V domains shown)
VH: EVQLLESGGGLVQPGGSLRLSCAASGFTFSWYEMGWVRQAPGKGLEWVSSIYSSGGGTMYADSVKGRFTISRDNSKNTLYLQMNSLRAEDTAVYYCARNPQYSGYDRSLSDGAFDIWGQGTMVTVSS
VL: QYELTQPPSVSVSPSQTATITCSGDNLGNKYNSWYQQKPGQSPLLVIYQDTKRPSAIPERFSGSNSGNTAILTISGTQAMDEADYYCQAWDGNVVFGGGTKLTVL
B15: M76-D01 (antibody, V domains shown)
VH: EVQLLESGGGLVQPGGSLRLSCAASGFTFSFYAMHWVRQAPGKGLEWVSGIVPSGGRTHYADSVKSRFTISRDNSKNTLYLQMNSLRAEDTAVYYCATDSSGSPNPLFDYWGQGTLVTVSS
VL: DIVMTQTPPSLPVNPGEPASISCRSSQSLSDDGNTYLDWYLQRPGQSPQLLIHTLSYRASGVPDRFSGSGSGTDFTLKISRVEAEDVGVYYCMQGTHWPPTFGQGTKVEIK
B16: M137-E12 (antibody, V domains shown)
VH: EVQLLESGGGLVQPGGSLRLSCAASGFTFSDYRMQWVRQAPGKGLEWVSVIVPSGGNTMYADSVKGRFTISRDNSKNTLYLQMNSLRAEDTAVYYCARGGPGSSIAARPAPTGYYGMDVWGQGTTVTVSS
VL: QSVLIQPPSVSGIPGQRVTISCSGNNSNFGSNTVTWYQQLPGTAPKLLIYSDSRRPSGVPDRFSGSRSDTSASLAISGLQSEDEAEYHCAAWDDSLNGVFGGGTKLTVL

Assays:
[1] = biological target: T1, human plasma kallikrein (human, UniProt P03952 20-390; P03952 391-638); assay: cell-based or functional assay
T1 sequence (P03952 20-390, chain 1 of 2): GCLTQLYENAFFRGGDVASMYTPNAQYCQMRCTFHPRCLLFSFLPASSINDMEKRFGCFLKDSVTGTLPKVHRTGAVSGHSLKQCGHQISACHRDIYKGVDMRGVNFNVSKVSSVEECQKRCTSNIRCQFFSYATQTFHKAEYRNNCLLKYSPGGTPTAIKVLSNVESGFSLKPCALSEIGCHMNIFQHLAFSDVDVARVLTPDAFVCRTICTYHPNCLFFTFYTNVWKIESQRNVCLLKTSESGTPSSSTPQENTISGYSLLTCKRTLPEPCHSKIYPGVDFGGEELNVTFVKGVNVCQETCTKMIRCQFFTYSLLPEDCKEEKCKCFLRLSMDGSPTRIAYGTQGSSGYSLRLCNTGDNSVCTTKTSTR
T1 sequence (P03952 391-638, chain 2 of 2): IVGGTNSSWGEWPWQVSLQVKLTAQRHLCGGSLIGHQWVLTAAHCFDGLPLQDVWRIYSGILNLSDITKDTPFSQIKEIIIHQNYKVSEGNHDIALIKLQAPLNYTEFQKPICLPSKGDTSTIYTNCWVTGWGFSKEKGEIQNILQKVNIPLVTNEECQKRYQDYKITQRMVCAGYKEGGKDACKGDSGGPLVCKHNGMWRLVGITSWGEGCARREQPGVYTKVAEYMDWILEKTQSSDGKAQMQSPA

[2] = biological target: T1, human plasma kallikrein; assay: apparent Ki (Ki,app), human pKal
[3] = biological target: T2, mouse plasma kallikrein (mouse, UniProt P26262 20-638); assay: apparent Ki (Ki,app), mouse pKal
T2 construct: mature; Source of the mouse enzyme used for Ki,app is not described; also called mouse pKal
T2 sequence (P26262 20-638 limits assumed): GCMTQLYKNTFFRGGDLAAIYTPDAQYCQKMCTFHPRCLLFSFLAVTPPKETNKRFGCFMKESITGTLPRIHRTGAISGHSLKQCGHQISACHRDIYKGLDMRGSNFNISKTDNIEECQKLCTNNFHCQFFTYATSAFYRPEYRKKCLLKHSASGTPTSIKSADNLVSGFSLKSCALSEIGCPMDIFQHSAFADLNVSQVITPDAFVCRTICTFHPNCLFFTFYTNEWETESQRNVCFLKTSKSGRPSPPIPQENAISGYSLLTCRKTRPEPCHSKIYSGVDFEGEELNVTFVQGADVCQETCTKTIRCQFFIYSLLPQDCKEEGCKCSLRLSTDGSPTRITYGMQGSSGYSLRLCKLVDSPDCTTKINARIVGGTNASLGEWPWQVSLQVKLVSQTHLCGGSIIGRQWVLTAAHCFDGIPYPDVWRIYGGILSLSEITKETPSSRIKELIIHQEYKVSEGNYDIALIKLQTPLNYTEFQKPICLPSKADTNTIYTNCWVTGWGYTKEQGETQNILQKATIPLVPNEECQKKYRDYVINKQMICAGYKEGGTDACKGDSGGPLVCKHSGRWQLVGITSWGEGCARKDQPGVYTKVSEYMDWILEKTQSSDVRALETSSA

[4] = biological target: T3, human plasma kallikrein (human, UniProt P03952 20-390; P03952 391-638); assay: apparent Ki (Ki,app), inhibition of human pKal activity
T3 construct: also called pKal; human pKal
T3 sequence (P03952 20-390, chain 1 of 2): as the sequence (P03952 20-390, chain 1 of 2) above
T3 sequence (P03952 391-638, chain 2 of 2): as the sequence (P03952 391-638, chain 2 of 2) above

[5] = biological target: T3, human plasma kallikrein; assay: ELISA; signal on biotinylated plasma kallikrein divided by signal on streptavidin background
Description: Abbreviations used: “T/B” is the ELISA signal obtained using of the “target” (biotinylated plasma kallikrein) divided by the ELISA signal of the “background” (streptavidin); both of which were coated on microtiter plates. “nd” is not determined. The symbol “q” refers to the amber suppressible stop codon (TAG), which is translated as glutamine (Q) in strains of E. coli such as the TG1 cells that were used to express the Fab fragments.

Binder	% inhibition at 10 nM [1] [%]	Ki [4] [nM]	ELISA (T/B) [5] [T/B ratio]	also measured
B1	90.9			
B2	87.3			
B3	85.4			
B4	82.6			
B5	76.1			
B6	74.7			
B7				Ki [2]: 5.9 nM; Ki [3]: 3.9 nM
B8				Ki [2]: 0.7 nM
B9		5.9	39.9	
B10		54	4.1	
B11		< 100	39.2	
B12		4.9	38.4	
B13		0.7	47.5	
B14		11	28.8	
B15		< 100	11.2	
B16		79	4.5	

Reference: patent US20100183625A1 (published 2010)
